Measured values as given in the supplement of paper PMC6757056.
± gives the standard deviation of the averaged measurements.

B1: library; a variant is named by its letters at N, in order (parent)
chain: GCUGUCACCGGUGUAUUACCCUAGUGGUCGACCGGUCUGAUGAGUCUNNNNNNAGACGAAACAGC

Tests used:
[1] = variants of: B1; test: FACS-Seq fitted mean relative fluorescence mCherry/BFP without ligand (log10 relative fluorescence); ligand: hypoxanthine (xanthine aptamer); higher = higher reporter protein expression; conditions: HEK293T, ligand present: no
Summary of the method: (§1)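 Enriched HEK293T cells carrying, by lentivirus, an mCherry reporter with the ribozyme switch and an EF1α-BFP marker spent 48 h with or without ligand and were sorted into 6 bins by mCherry/BFP. MiSeq sequencing of PCR-amplified bin genomic DNA gave bin counts. Fluorescence was calculated as the fitted normal mean of those counts. Counts were binned on log10(mCherry/BFP), and means were scaled to five spiked-in control ribozymes.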

[2] = variants of: B1; test: normalized RNA/DNA level with ligand (relative to sTRSVctl = 100) (log10 (% of sTRSVctl)); ligand: hypoxanthine (xanthine aptamer); higher = less ribozyme self-cleavage, higher mRNA level; conditions: ligand concentration (+) RNA-Seq: 5 mM, HEK293T, reporter: mCherry (pCS4076), ligand present: yes
Summary of the method: (§2)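 Only sequences with at least 100 DNA reads were analyzed, from HEK293T cells transfected with 4 µg per 6-well well of ribozyme switch library plasmids 72 h before RNA extraction with EDTA. Any ligand was added 1 h before transfection. RNA level was defined as RNA over DNA reads, normalized to a spiked-in non-cleaving sequence or to the top sequences, then scaled and log-transformed. The top set was 25 sequences, and the scaling was ×100 followed by log10.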

[3] = variants of: B1; test: normalized RNA/DNA level without ligand (relative to sTRSVctl = 100) (log10 (% of sTRSVctl)); ligand: hypoxanthine (xanthine aptamer); higher = less ribozyme self-cleavage, higher mRNA level; conditions: HEK293T, reporter: mCherry (pCS4076), ligand present: no
Summary of the method: as §2

[4] = variants of: B1; test: FACS-Seq fitted mean relative fluorescence mCherry/BFP with ligand (log10 relative fluorescence); ligand: hypoxanthine (xanthine aptamer); ligand concentration (+) FACS-Seq: 5 mM; higher = higher reporter protein expression; conditions: HEK293T, ligand present: yes
Summary of the method: as §1

| Variant | FACS-Seq fitted mean (log10) [1] | normalized RNA/DNA level with ligand (log10) [2] | normalized RNA/DNA level without ligand (log10) [3] | FACS-Seq fitted mean (log10) [4] |
| --- | --- | --- | --- | --- |
| GCUGUCACCGGUGUAUUACCCUAGUGGUCGACCGGUCUGAUGAGUCUACCCUGAGACGAAACAGC | 0.60276 ± 0.00041 | 1.875 ± 0.0043 | 1.411 ± 0.0069 | 0.786 ± 0.12 |
| GCUGUCACCGGUGUAUUACCCUAGUGGUCGACCGGUCUGAUGAGUCUGCCGAGAGACGAAACAGC | 0.182 ± 0.0042 | 1.856 ± 0.013 | 1.39 ± 0.019 | 0.5906 ± 0.0027 |
| GCUGUCACCGGUGUAUUACCCUAGUGGUCGACCGGUCUGAUGAGUCUGCCGAAAGACGAAACAGC | 0.359 ± 0.087 | 1.96 ± 0.071 | 1.756 ± 0.0038 | 0.445 ± 0.055 |
| GCUGUCACCGGUGUAUUACCCUAGUGGUCGACCGGUCUGAUGAGUCUUCCCCAAGACGAAACAGC | 0.858 ± 0.055 | 1.94 ± 0.08 | 1.82 ± 0.036 | 0.843 ± 0.088 |
| GCUGUCACCGGUGUAUUACCCUAGUGGUCGACCGGUCUGAUGAGUCUGCCCAGAGACGAAACAGC | 0.0481 ± 0.032 | 1.81 ± 0.052 | 1.4 ± 0.027 | 0.24 ± 0.019 |
| GCUGUCACCGGUGUAUUACCCUAGUGGUCGACCGGUCUGAUGAGUCUUCCCAGAGACGAAACAGC | 0.261 ± 0.0092 | 1.84 ± 0.0087 | 1.35 ± 0.023 | 0.506 ± 0.016 |
| GCUGUCACCGGUGUAUUACCCUAGUGGUCGACCGGUCUGAUGAGUCUGCCCUGAGACGAAACAGC | -0.113 ± 0.029 | 1.873 ± 0.0091 | 1.49 ± 0.049 | 0.497 ± 0.092 |
| GCUGUCACCGGUGUAUUACCCUAGUGGUCGACCGGUCUGAUGAGUCUGCCCUUAGACGAAACAGC | 0.019 ± 0.061 | 1.95 ± 0.065 | 1.92 ± 0.058 | 0.231 ± 0.0079 |
| GCUGUCACCGGUGUAUUACCCUAGUGGUCGACCGGUCUGAUGAGUCUUCCCUGAGACGAAACAGC | 0.429 ± 0.01 | 1.87 ± 0.076 | 1.41 ± 0.0038 | 0.587 ± 0.0069 |
| GCUGUCACCGGUGUAUUACCCUAGUGGUCGACCGGUCUGAUGAGUCUACCCGGAGACGAAACAGC | 0.195 ± 0.055 | 1.89 ± 0.034 | 1.48 ± 0.019 | 0.714 ± 0.058 |
| GCUGUCACCGGUGUAUUACCCUAGUGGUCGACCGGUCUGAUGAGUCUUCCCGUAGACGAAACAGC | 0.434 ± 0.043 | 1.934 ± 0.0021 | 1.703 ± 0.015 | 0.554 ± 0.048 |
